T1: Sec61 (S. cerevisiae) (S. cerevisiae, UniProt P32915 1-480, surface-exposed lysines modified with low-molecular weight polyethylenglycol (MS(PEG)12 methyl-PEG-NHS-ester))
T1 sequence (looked up): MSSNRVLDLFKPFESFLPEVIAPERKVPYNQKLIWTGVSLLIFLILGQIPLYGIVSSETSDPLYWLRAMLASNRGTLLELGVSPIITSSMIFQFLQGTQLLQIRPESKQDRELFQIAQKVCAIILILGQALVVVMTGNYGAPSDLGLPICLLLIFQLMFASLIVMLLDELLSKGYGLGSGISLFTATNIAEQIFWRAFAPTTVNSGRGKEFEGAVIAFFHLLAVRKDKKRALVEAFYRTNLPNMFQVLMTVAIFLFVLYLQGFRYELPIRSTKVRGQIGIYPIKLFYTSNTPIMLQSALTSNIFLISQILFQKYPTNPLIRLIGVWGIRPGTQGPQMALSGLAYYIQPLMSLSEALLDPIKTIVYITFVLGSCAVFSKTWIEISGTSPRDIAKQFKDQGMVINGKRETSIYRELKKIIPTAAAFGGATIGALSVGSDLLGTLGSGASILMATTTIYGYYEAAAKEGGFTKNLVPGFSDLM

B1: Sss1 (S. cerevisiae) (natural protein, UniProt P35179 1-80, looked up)
chain: MARASEKGEEKKQSNNQVEKLVEAPVEFVREGTQFLAKCKKPDLKEYTKIVKAVGIGFIAVGIIGYAIKLIHIPIRYVIV
modifications: surface-exposed lysines modified with low-molecular weight polyethylenglycol (MS(PEG)12 methyl-PEG-NHS-ester)
B2: Sbh1 (S. cerevisiae) (natural protein, UniProt P52870 1-82, looked up)
chain: MSSPTPPGGQRTLQKRKQGSSQKVAASAPKKNTNSNNSILKIYSDEATGLRVDPLVVLFLAVGFIFSVVALHVISKVAGKLF
modifications: surface-exposed lysines modified with low-molecular weight polyethylenglycol (MS(PEG)12 methyl-PEG-NHS-ester)
B3: Sec71 (S. cerevisiae) (natural protein, UniProt P33754 1-206, looked up)
chain: MSEFNETKFSNNGTFFETEEPIVETKSISVYTPLIYVFILVVSLVMFASSYRKKQAKKISEQPSIFDENDAHDLYFQIKEMSENEKIHEKVLKAALLNRGAESVRRSLKLKELAPQINLLYKNGSIGEDYWKRFETEVKLIELEFKDTLQEAERLQPGWVQLFVMVCKEICFNQALSRRYQSILKRKEVCIKEWELKINNDGRLVN
modifications: glycan (cleaved by Endoglycosidase H); surface-exposed lysines modified with low-molecular weight polyethylenglycol (MS(PEG)12 methyl-PEG-NHS-ester)

molecular target: T1, Sec61 (S. cerevisiae); assay: cryo-EM structure

| Binder | binding result |
| --- | --- |
| B1 | binds |
| B2 | binds |
| B3 | binds |
